Reference: US20250197482A1 (UNITED STATES OF AMERICA AS REPRESENTED BY THE SECRETARY …, published 2025)

Experiments:
Assay in all cases: cell-based or functional assay
CAP256 wk34c80 = CAP256 wk34c80 (HIV-1)
[1] = target: T1, HIV-1 Env of strain WITO.33 (Env-pseudotyped virus) (HIV-1)
[2] = target: HIV-1 Env of strain SC422.8 (Env-pseudotyped virus) (HIV-1)
[3] = target: T1, HIV-1 Env of strain WITO.33 …; remark: listed apart in the source

Binder | % neutralization, single point, Env-pseudotyped virus on TZM-bl (CAP256 wk34c80) | % neutralization, single point, Env-pseudotyped virus on TZM-bl [1] | neutralization potency, fold better than that of J3 [2] | neutralization potency, fold better than that of J3 [3]
CAP256V2LS-J3-2 (bispecific antibody) heavy: not shown light: EVQLVESGGGLVQAGGFLRLSCELRGSIFNQYAMAWFRQAPGKEREFVAGMGAVPHYGEFVKGRFTISRDNAKSTVYLQMSSLKPEDTAIYFCARSKSTYISYNSNGYDYWGRGTQVTVSSGGSGGGGSGGQSVLTQPPSVSAAPGQKVTISCSGNTSNIGNNFVSWYQQRPGRAPQLLIYETDKRPSGIPDRFSASKSGTSGTLAITGLQTGDEADYYCATWAASLSSARVFGTGTQVIVLGQPKVNPTVTLFPPSSEELQANKATLVCLISDFYPGAVTVAWKADSSPVKAGVETTTPSKQSNNKYAASSYLSLTPEQWKSHRSYSCQVTHEGSTVEKTVAPTECS | 100% | 100% | 3 fold | ~10 fold
CAP256V2LS-J3-3 (bispecific antibody) heavy: not shown light: EVQLVESGGGLVQAGGFLRLSCELRGSIFNQYAMAWFRQAPGKEREFVAGMGAVPHYGEFVKGRFTISRDNAKSTVYLQMSSLKPEDTAIYFCARSKSTYISYNSNGYDYWGRGTQVTVSSGGSGGGGSGGGGSGGQSVLTQPPSVSAAPGQKVTISCSGNTSNIGNNFVSWYQQRPGRAPQLLIYETDKRPSGIPDRFSASKSGTSGTLAITGLQTGDEADYYCATWAASLSSARVFGTGTQVIVLGQPKVNPTVTLFPPSSEELQANKATLVCLISDFYPGAVTVAWKADSSPVKAGVETTTPSKQSNNKYAASSYLSLTPEQWKSHRSYSCQVTHEGSTVEKTVAPTECS | 100% | 89% | 3 fold | ~10 fold
CAP256V2LS-J3-5 (bispecific antibody) heavy chain: not shown light chain (J3 VHH, linker, CAP256V2LS LC): EVQLVESGGGLVQAGGFLRLSCELRGSIFNQYAMAWFRQAPGKEREFVAGMGAVPHYGEFVKGRFTISRDNAKSTVYLQMSSLKPEDTAIYFCARSKSTYISYNSNGYDYWGRGTQVTVSSDKTHTGDKTHTQSVLTQPPSVSAAPGQKVTISCSGNTSNIGNNFVSWYQQRPGRAPQLLIYETDKRPSGIPDRFSASKSGTSGTLAITGLQTGDEADYYCATWAASLSSARVFGTGTQVIVLGQPKVNPTVTLFPPSSEELQANKATLVCLISDFYPGAVTVAWKADSSPVKAGVETTTPSKQSNNKYAASSYLSLTPEQWKSHRSYSCQVTHEGSTVEKTVAPTECS | 100% | 62% |  | 
CAP256V2LS-J3-6 (bispecific antibody) heavy chain: not shown light chain (J3 VHH, linker, CAP256V2LS LC): EVQLVESGGGLVQAGGFLRLSCELRGSIFNQYAMAWFRQAPGKEREFVAGMGAVPHYGEFVKGRFTISRDNAKSTVYLQMSSLKPEDTAIYFCARSKSTYISYNSNGYDYWGRGTQVTVSSDKTHTGDKTHTGDKTHTQSVLTQPPSVSAAPGQKVTISCSGNTSNIGNNFVSWYQQRPGRAPQLLIYETDKRPSGIPDRFSASKSGTSGTLAITGLQTGDEADYYCATWAASLSSARVFGTGTQVIVLGQPKVNPTVTLFPPSSEELQANKATLVCLISDFYPGAVTVAWKADSSPVKAGVETTTPSKQSNNKYAASSYLSLTPEQWKSHRSYSCQVTHEGSTVEKTVAPTECS | 100% | 48% |  | 
CAP256V2LS-10E8-1 (bispecific antibody) heavy chain: not shown light chain (10E8v4 scFv, linker, CAP256V2LS LC): EVRLVESGGGLVKPGGSLRLSCSASGFDFDNAWMTWVRQPPGKGLEWVGRITGPGEGWSVDYAESVKGRFTISRDNTKNTLYLEMNNVRTEDTGYYFCARTGKYYDFWSGYPPGEEYFQDWGQGTLVIVSSGGGGSGGGGSGGGGSSELTQDPAVSVALKQTVTITCRGDSLRSHYASWYQKKPGQAPVLLFYGKNNRPSGIPDRFSGSASGNRASLTITGAQAEDEADYYCSSRDKSGSRLSVFGGGTKLTVGGSGGQSVLTQPPSVSAAPGQKVTISCSGNTSNIGNNFVSWYQQRPGRAPQLLIYETDKRPSGIPDRFSASKSGTSGTLAITGLQTGDEADYYCATWAASLSSARVFGTGTQVIVLGQPKVNPTVTLFPPSSEELQANKATLVCLISDFYPGAVTVAWKADSSPVKAGVETTTPSKQSNNKYAASSYLSLTPEQWKSHRSYSCQVTHEGSTVEKTVAPTECS | 98% | 14% |  | 
CAP256V2LS-10E8-2 (bispecific antibody) heavy chain: not shown light chain (10E8v4 scFv, linker, CAP256V2LS LC): EVRLVESGGGLVKPGGSLRLSCSASGFDFDNAWMTWVRQPPGKGLEWVGRITGPGEGWSVDYAESVKGRFTISRDNTKNTLYLEMNNVRTEDTGYYFCARTGKYYDFWSGYPPGEEYFQDWGQGTLVIVSSGGGGSGGGGSGGGGSSELTQDPAVSVALKQTVTITCRGDSLRSHYASWYQKKPGQAPVLLFYGKNNRPSGIPDRFSGSASGNRASLTITGAQAEDEADYYCSSRDKSGSRLSVFGGGTKLTVGGSGGGGSGGQSVLTQPPSVSAAPGQKVTISCSGNTSNIGNNFVSWYQQRPGRAPQLLIYETDKRPSGIPDRFSASKSGTSGTLAITGLQTGDEADYYCATWAASLSSARVFGTGTQVIVLGQPKVNPTVTLFPPSSEELQANKATLVCLISDFYPGAVTVAWKADSSPVKAGVETTTPSKQSNNKYAASSYLSLTPEQWKSHRSYSCQVTHEGSTVEKTVAPTECS | 91% | 45% |  | 
CAP256V2LS-10E8-3 (bispecific antibody) heavy chain: not shown light chain (10E8v4 scFv, linker, CAP256V2LS LC): EVRLVESGGGLVKPGGSLRLSCSASGFDFDNAWMTWVRQPPGKGLEWVGRITGPGEGWSVDYAESVKGRFTISRDNTKNTLYLEMNNVRTEDTGYYFCARTGKYYDFWSGYPPGEEYFQDWGQGTLVIVSSGGGGSGGGGSGGGGSSELTQDPAVSVALKQTVTITCRGDSLRSHYASWYQKKPGQAPVLLFYGKNNRPSGIPDRFSGSASGNRASLTITGAQAEDEADYYCSSRDKSGSRLSVFGGGTKLTVGGSGGGGSGGGGSGGQSVLTQPPSVSAAPGQKVTISCSGNTSNIGNNFVSWYQQRPGRAPQLLIYETDKRPSGIPDRFSASKSGTSGTLAITGLQTGDEADYYCATWAASLSSARVFGTGTQVIVLGQPKVNPTVTLFPPSSEELQANKATLVCLISDFYPGAVTVAWKADSSPVKAGVETTTPSKQSNNKYAASSYLSLTPEQWKSHRSYSCQVTHEGSTVEKTVAPTECS | 99% | 21% |  | 
